The source of these data is patent publication US8283180B2, “Periodic acid-schiff staining with detection in the infrared range” (Amicus Therapeutics, Inc., priority 2007, dated 2012).

For this test, the system named is PM-12 cells. Kind of test: PAS staining of Pompe fibroblasts with IR fluorescence detection after diastase digestion. In kind it is cell-based, human. As to conditions: 20,000 cells/well; 0.1% diastase, 5 to 60 minutes; detection at 800 nm; FIG. 2. The method, then: PM-11 Pompe fibroblasts were obtained from Dr. W. J. Kleijer, Department of Cell Biology & Genetics, Erasmus University, The Netherlands. PM-12 Pompe fibroblasts were purchased from Coriell (catalog #GM03329). CRL-2076 fibroblasts (negative control) were purchased from American Type Culture Collection (Manassas, Va.). All fibroblast lines were routinely cultured at 37° C., 5% CO2, in growth medium consisting of Dulbecco's Modified […] Medium containing 15% fetal bovine serum (Hyclone, Logan, Utah), 100 U/mL penicillin; 100 μg/mL streptomycin, and 2 mM L-glutamine.
Prior to the assay, borosilicate coverslip glass bottom 96-well black plates (Nunc; catalog #164588) are coated with superfibronectin (Sigma). […] Briefly, 100 μL of 5 μg/mL superfibronectin (Sigma) is pipetted into each well and the plate is incubated at 37° C. for 2 hours. […]
Following the overnight incubation, the plate is read on a laser-based Odyssey IR scanner (Li-Cor, Inc.) at emission wavelengths of 700 nm (near-IR) or 800 nm (IR). The detector counts IR and near-IR fluorescence emissions independently or simultaneously from the samples, and reports these counts as arbitrary units. The detector scans across an entire microtiter plate, thus can read two fluorophores from any microtiter formatted sample array (96-well, 384-well, or other) within a few minutes. […]

B1: diastase: α-amylase type VI-B from porcine pancreas; breaks down glycogen, used as negative control for PAS staining (protein, UniProt P00690 16-511, looked up)
Pancreatic alpha-amylase: QYAPQTQSGRTSIVHLFEWRWVDIALECERYLGPKGFGGVQVSPPNENIVVTNPSRPWWERYQPVSYKLCTRSGNENEFRDMVTRCNNVGVRIYVDAVINHMCGSGAAAGTGTTCGSYCNPGNREFPAVPYSAWDFNDGKCKTASGGIESYNDPYQVRDCQLVGLLDLALEKDYVRSMIADYLNKLIDIGVAGFRIDASKHMWPGDIKAVLDKLHNLNTNWFPAGSRPFIFQEVIDLGGEAIQSSEYFGNGRVTEFKYGAKLGTVVRKWSGEKMSYLKNWGEGWGFMPSDRALVFVDNHDNQRGHGAGGASILTFWDARLYKVAVGFMLAHPYGFTRVMSSYRWARNFVNGQDVNDWIGPPNNNGVIKEVTINADTTCGNDWVCEHRWRQIRNMVWFRNVVDGQPFANWWANGSNQVAFGRGNRGFIVFNNDDWQLSSTLQTGLPGGTYCDVISGDKVGNSCTGIKVYVSSDGTAQFSISNSAEDPFIAIHAESKL
Consider B1, for which the “time-dependent decrease in PAS stain IR fluorescence signal” value is “about 2 fold”.
